Laboratory results from US20240174727A1, “LONG-ACTING NATRIURETIC PEPTIDES AND USES THEREOF” (Eli Lilly and Company, priority 2022, published 2024).
Numbered stars: 1 amine (or outer) side, 2 acyl side, 3 side chain; on linkers, the order of the positions; unused ones are H or OH. Bridge positions count the residues as written; N and C are the ends. Square brackets hold non-standard residues; d marks the D form. Primed or numbered codes have the meaning given here. Ends that are not written are not given here. * marks the point of attachment. thioacetal = thioacetal linkage between two cysteines (intrachain bond at the bracketed Cys); C20 diacid = O=C(O)CCCCCCCCCCCCCCCCCCC(=O)*; γGlu = O=C(O)[C@H](CCC(=O)[*:2])N[*:1]; 4Pal = N[C@@H](Cc1ccncc1)C(=O)O; thioacetal″ = not defined here; βAla = NCCC(=O)O

T1: human NPRA (human, UniProt P16066 33-1061)
T1 sequence (looked up): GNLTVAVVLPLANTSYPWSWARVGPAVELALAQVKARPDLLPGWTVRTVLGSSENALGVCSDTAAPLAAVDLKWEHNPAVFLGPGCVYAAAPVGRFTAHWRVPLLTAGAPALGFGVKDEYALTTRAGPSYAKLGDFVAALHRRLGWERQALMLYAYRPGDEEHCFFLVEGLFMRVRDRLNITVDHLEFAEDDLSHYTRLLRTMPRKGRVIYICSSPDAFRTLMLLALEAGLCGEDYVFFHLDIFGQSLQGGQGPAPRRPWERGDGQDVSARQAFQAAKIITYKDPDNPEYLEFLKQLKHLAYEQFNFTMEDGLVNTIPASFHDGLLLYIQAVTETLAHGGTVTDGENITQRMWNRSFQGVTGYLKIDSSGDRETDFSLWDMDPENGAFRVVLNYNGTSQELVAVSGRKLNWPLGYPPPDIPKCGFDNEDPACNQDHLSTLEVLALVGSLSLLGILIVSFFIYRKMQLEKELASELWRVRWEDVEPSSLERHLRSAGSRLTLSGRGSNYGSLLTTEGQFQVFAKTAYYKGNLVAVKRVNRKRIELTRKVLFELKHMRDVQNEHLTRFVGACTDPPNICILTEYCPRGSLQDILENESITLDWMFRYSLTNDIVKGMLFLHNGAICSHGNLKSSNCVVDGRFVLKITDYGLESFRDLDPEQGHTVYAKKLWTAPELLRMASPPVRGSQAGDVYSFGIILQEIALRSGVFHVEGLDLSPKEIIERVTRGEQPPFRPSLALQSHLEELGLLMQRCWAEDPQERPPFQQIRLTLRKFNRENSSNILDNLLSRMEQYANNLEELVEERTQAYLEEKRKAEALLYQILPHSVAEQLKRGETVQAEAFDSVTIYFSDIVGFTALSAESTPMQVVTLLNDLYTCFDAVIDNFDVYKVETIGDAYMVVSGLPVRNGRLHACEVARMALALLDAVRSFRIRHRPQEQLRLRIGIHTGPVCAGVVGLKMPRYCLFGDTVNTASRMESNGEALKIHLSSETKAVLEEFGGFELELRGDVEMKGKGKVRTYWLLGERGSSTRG

T2: rat NPRA (rat, UniProt P18910 29-1057)
T2 sequence (looked up): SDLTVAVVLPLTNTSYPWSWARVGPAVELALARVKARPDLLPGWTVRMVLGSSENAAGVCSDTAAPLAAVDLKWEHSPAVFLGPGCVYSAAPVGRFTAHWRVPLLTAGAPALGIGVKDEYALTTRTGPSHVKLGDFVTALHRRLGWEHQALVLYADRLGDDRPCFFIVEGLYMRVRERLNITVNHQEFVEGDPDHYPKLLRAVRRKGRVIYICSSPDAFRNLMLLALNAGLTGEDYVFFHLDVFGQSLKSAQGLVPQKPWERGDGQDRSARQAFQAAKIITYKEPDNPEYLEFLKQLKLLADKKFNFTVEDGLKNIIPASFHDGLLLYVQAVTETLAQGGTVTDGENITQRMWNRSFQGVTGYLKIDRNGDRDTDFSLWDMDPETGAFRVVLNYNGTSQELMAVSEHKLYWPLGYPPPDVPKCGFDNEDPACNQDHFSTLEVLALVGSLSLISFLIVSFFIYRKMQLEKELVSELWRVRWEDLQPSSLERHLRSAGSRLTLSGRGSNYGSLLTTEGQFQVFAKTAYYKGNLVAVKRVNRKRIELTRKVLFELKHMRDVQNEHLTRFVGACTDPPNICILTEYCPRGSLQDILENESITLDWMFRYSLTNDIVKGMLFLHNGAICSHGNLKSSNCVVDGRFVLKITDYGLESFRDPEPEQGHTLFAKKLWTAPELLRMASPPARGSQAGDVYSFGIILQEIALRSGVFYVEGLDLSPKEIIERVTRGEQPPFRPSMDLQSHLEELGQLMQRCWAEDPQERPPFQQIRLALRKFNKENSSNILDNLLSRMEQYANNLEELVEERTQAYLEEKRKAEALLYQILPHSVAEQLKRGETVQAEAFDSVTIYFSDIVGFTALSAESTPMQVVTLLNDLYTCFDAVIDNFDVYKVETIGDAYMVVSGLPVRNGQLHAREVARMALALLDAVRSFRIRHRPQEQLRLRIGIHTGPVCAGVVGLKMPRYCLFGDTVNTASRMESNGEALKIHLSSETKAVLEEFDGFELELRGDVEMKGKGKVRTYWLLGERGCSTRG


Columns and labels:
[1] = molecular target: T1, human NPRA; assay: cell-based or functional assay
[2] = molecular target: T2, rat NPRA; assay: cell-based or functional assay

Row | Binder | cGMP Assay (EC50, pM) w/BSA [1] | cGMP Assay (EC50, pM) w/Casein [1] | cGMP Assay (EC50, pM) w/BSA [2] | cGMP Assay (EC50, pM) w/Casein [2]
1 | EK[βAla]RSSCFGKRIDRIGHQSGLGCPSFRHGGKSSGAPPPS-NH2 (bridge 7-23 via thioacetal; not fully specified (N-terminus)) [Example 90] | 19700 pM | 452 pM | 734000 pM | 13200 pM
2 | SXRRSSCFGGRIDRIGHQSGLGCPSFRHGGKSSGAPPPS (HOOC-(CH2)18-CO-(γGlu)-EKEKEKG-PEG24-S-4Pal-RRSS[CFGGRIDRIGHQSGLGC]PSFRHGGKSSGAPPPS-NH2; thioacetal linkage between the bracketed Cys) [Example 75] | 17000 pM | 1060 pM | 533000 pM | 23800 pM
3 | SXRRSSCFGGRIDRIGHYSGLGCPSFRHGSPSSGAPPPS (HOOC-(CH2)18-CO-(γGlu)-EKEKEKG-(AEEA)6-S-4Pal-RRSS[CFGGRIDRIGHYSGLGC]PSFRHGSPSSGAPPPS-NH2; thioacetal linkage between the bracketed Cys) [Example 96] | 12700 pM | 720 pM | 401000 pM | 12200 pM
4 | SXRRSSCFGGRIDRIGHYSGLGCPSFRHGGKSSGAPPPS (HOOC-(CH2)18-CO-(γGlu)-EKEKEKG-PEG24-S-4Pal-RRSS[CFGGRIDRIGHYSGLGC]PSFRHGGKSSGAPPPS-NH2; thioacetal linkage between the bracketed Cys) [Example 95] | 7030 pM | 771 pM | 322000 pM | 12300 pM
5 | SXRRSSCFGGRIDRIGHQSGLGCPSFRHGGKSSGAPPPS (HOOC-(CH2)18-CO-(γGlu)-EKEKEKG-PEG12-S-4Pal-RRSS[CFGGRIDRIGHQSGLGC]PSFRHGGKSSGAPPPS-NH2; thioacetal linkage between the bracketed Cys) [Example 82] | 32600 pM | 623 pM | 836000 pM | 25400 pM
6 | SXRRSSCFGKRIDRIGHQSGLGCPSFRHGGKSSGAPPPS (HOOC-(CH2)18-CO-(γGlu)-EKEKEKG-(AEEA)8-S-4Pal-RRSS[CFGKRIDRIGHQSGLGC]PSFRHGGKSSGAPPPS-NH2; thioacetal linkage between the bracketed Cys) [Example 87] | 3380 pM | 621 pM | 463000 pM | 8870 pM
7 | SXRRSSCFGGRIDRIGHQSGLGCPSFRHGGKSSGAPPPS (HOOC-(CH2)18-CO-(γGlu)-EKEKEKG-(AEEA)4-S-4Pal-RRSS[CFGGRIDRIGHQSGLGC]PSFRHGGKSSGAPPPS-NH2; thioacetal linkage between the bracketed Cys) [Example 83] | 38400 pM | 1040 pM | 860000 pM | 16700 pM
8 | SXRRSSCFGGRIDRIGHQSGLGCPSFRHGGKSSGAPPPS (HOOC-(CH2)18-CO-(γGlu)-EKEKEKG-(AEEA)6-S-4Pal-RRSS[CFGGRIDRIGHQSGLGC]PSFRHGGKSSGAPPPS-NH2; thioacetal linkage between the bracketed Cys) [Example 86] | 25200 pM | 1020 pM | 868000 pM | 17900 pM
9 | SXRRSSCFGGRIDRIGHYSGLGCPSFRHGGKSSGAPPPS (HOOC-(CH2)18-CO-(γGlu)-EKEKEKG-(AEEA)6-S-4Pal-RRSS[CFGGRIDRIGHYSGLGC]PSFRHGGKSSGAPPPS-NH2; thioacetal linkage between the bracketed Cys) [Example 92] | 10100 pM | 772 pM | 290000 pM | 12400 pM
10 | EKXRSSCFGKRIDRIGHQSGLGCPSFRHGGKSSGAPPPS (HOOC-(CH2)18-CO-(γGlu)-EKEKEKG-(AEEA)6-EK-βAla-RSS[CFGKRIDRIGHQSGLGC]PSFRHGGKSSGAPPPS-NH2; thioacetal linkage between the bracketed Cys) [Example 89] | 10800 pM | 806 pM | 819000 pM | 13800 pM
11 | EKXRSSCFGKRIDRIGHQSGLGCPSFRHGGKSSGAPPPS (HOOC-(CH2)18-CO-(γGlu)-EKEKEKG-(AEEA)4-EK-βAla-RSS[CFGKRIDRIGHQSGLGC]PSFRHGGKSSGAPPPS-NH2; thioacetal linkage between the bracketed Cys) [Example 88] | 16300 pM | 520 pM | 1.05e+06 pM | 11400 pM
12 | SXRRSSCFGGRIDRIGHYSGLGCPSFRHGGKSSGAPPPS (HOOC-(CH2)18-CO-(γGlu)-EKEKEKG-(AEEA)8-S-4Pal-RRSS[CFGGRIDRIGHYSGLGC]PSFRHGGKSSGAPPPS-NH2; thioacetal linkage between the bracketed Cys) [Example 91] | 13900 pM | 1000 pM | 549000 pM | 16200 pM
13 | {C20 diacid}-[γGlu]EKEKEKGS[4Pal]RRSSCFGRKIDRIGHQSGLGCPSFRHGGKSSGAPPPS-NH2 (bridge 15-31 via thioacetal) [Example 80] | 4750 pM | 234 pM | 364000 pM | 3550 pM
14 | {C20 diacid}-[γGlu]EKEKEKGS[4Pal]RRSSCFGKRIDRIGHQSGLGCPSFRHGGKSSGAPPPS-NH2 (bridge 15-31 via thioacetal) [Example 79] | 4580 pM | 273 pM | 261000 pM | 3440 pM
15 | EKXRSSCFGGKIDRIGHYSGLGCPSFRHGSPSSGAPPPS (HOOC-(CH2)18-CO-(γGlu)-EKEKEKG-PEG24-EK-βAla-RSS[CFGGKIDRIGHYSGLGC]PSFRHGSPSSGAPPPS-NH2; thioacetal linkage between the bracketed Cys) [Example 6] | 33300 pM | 1530 pM | 596000 pM | 30500 pM
16 | EKXRSSCFGGKIDRIGHQSGLGCPSFRHGSPSSGAPPPS (HOOC-(CH2)18-CO-(γGlu)-EKEKEKG-PEG24-EK-βAla-RSS[CFGGKIDRIGHQSGLGC]PSFRHGSPSSGAPPPS-NH2; thioacetal linkage between the bracketed Cys) [Example 7] | 69600 pM | 5670 pM | 1.17e+06 pM | 184000 pM
17 | EKXRSSCFGGRIDRIGHYSGLGCPSFRHGSPSSGAPPPS (HOOC-(CH2)18-CO-(γGlu)-EKEKEKG-(AEEA)6-EK-βAla-RSS[CFGGRIDRIGHYSGLGC]PSFRHGSPSSGAPPPS-NH2; thioacetal linkage between the bracketed Cys) [Example 98] | – | 1840 pM | – | 17900 pM
18 | SXRRSSCFGGRIDRIGHQSGLGCPSFRHGGPPSXKPPPK (HOOC-(CH2)18-CO-(γGlu)-EKEKEKG-PEG24-S-4Pal-RRSS[CFGGRIDRIGHQSGLGC]PSFRHGGPPS-Aib-KPPPK-NH2; thioacetal linkage between the bracketed Cys) [Example 84] | 9730 pM | 1010 pM | 547000 pM | 24600 pM
19 | {C20 diacid}-[γGlu]EKEKEKGS[4Pal]RRSSCFGKRIDRIGHYSGLGCPSFRHGGKSSGAPPPS-NH2 (bridge 15-31 via thioacetal″; reading uncertain) [Example 81] | 5710 pM | 388 pM | 127000 pM | 1910 pM
20 | {C20 diacid}-[γGlu]EKEKEKGEK[βAla]RSSCFGGRIDRIGHYSGLGCPSFRHGGKSSGAPPPS-NH2 (bridge 15-31 via thioacetal) [Example 76] | 79900 pM | 2620 pM | 607000 pM | 8280 pM
